Source: patent US20150353911

Substance: thrombin
- cleavage rate with 14 nM thrombin (HPLC, decrease of peptide peak area) (Compound 1): at least 10-fold increase in cleavage rate compared to that of Compound 2
- fraction cleaved and released with 1.4 nM thrombin (HPLC) (Compound 1): 30% of Compound 1 was quickly cleaved and released
- cleavage by 1.4 nM thrombin (HPLC) (Compound 4): Compound 1 was a better substrate for thrombin than Compounds 4 and 5
- cleavage by 1.4 nM thrombin (HPLC) (Compound 5): Compound 1 was a better substrate for thrombin than Compounds 4 and 5
- release of peptide IVGGQE with 1.4 nM thrombin (HPLC) (Compound 6): thrombin-mediated release of peptide IVGGQE from Compound 6 without PABC linker was not observed
- amidolytic activity (chromozyme t-PA substrate) before and after thrombin activation (FVII-133): FVII-212 displayed no activity prior to thrombin activation. Following thrombin activation, the amidolytic activity associated with FVII-212 was greater than that observed for equal molar levels of rFVIIa
- clotting activity by ROTEM in human hemophilia A blood (FVII-184): Inactivating the thrombin cleavage site of FVII133 considerably reduced the activity; as the activity of FVII-184, which only became detectable at 50 nM, was much lower than that of FVIIa
